In experiment [1] the target is OT-1 TCR (OVA-restricted T cell receptor) (mouse).
The target in experiment [2] is P14 TCR (gp33-specific T cell receptor) (mouse).

Values joined by “and” are separate entries in the source; they are usually repeats but may differ in a detail not shown here. Equal values may be shown once.

Chain of P14 TCR (gp33-specific T cell receptor) (mouse) (chain, as listed by the source limits assumed): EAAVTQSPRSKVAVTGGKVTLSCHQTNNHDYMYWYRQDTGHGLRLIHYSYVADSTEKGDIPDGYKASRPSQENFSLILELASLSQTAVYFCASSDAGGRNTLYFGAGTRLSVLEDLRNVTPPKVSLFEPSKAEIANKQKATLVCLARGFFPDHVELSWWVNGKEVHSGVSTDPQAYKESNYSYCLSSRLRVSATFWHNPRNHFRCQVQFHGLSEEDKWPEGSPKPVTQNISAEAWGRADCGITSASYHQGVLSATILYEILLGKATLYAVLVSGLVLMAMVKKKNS
Chain of OT-1 TCR (OVA-restricted T cell receptor) (mouse) (chain, as listed by the source limits assumed, chain 1 of 2): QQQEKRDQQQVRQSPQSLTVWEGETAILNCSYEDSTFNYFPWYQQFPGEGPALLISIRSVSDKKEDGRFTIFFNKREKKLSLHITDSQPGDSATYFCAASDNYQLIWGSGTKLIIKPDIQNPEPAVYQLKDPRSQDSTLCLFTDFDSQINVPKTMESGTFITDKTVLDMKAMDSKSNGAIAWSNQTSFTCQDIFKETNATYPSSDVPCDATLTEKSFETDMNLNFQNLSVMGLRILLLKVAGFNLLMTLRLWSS
Chain of OT-1 TCR (OVA-restricted T cell receptor) (mouse) (chain, as listed by the source limits assumed, chain 2 of 2): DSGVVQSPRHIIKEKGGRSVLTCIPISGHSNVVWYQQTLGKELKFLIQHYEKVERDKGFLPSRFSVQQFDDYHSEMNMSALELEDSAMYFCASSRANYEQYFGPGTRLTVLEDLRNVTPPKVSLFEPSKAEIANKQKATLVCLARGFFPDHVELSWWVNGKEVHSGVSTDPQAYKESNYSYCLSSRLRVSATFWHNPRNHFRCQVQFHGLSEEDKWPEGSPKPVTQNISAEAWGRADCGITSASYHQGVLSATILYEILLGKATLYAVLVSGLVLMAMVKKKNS

In experiment [1], OVA Pentamer (peptide-MHC) showed a percent OVA Pentamer+ GFP+ cells (Q2) (% (unit not given)) of 6.66 and a percent OVA Pentamer+ GFP- cells (Q3, upper left quadrant) (% (unit not given)) of 26.

On to P14 TCR (y-axis stain) (antibody), for which the percent P14 TCR+ GFP- cells (Q1) (% (unit not given)) in experiment [2] was 89.5 and 96.7 and 36.5.

Values taken from patent publication US20260226500A1.
